Laboratory results: US20200263187A1, “A METHOD FOR EXPRESSION OF A PROKARYOTIC MEMBRANE PROTEIN IN AN EUKARYOTIC ORGANISM, PRODUCTS AND USES THEREOF” (Universidade Do Minho, priority 2017, published 2020)
Where two headings read alike, the source gives them in different places.

Columns and labels:
[1] = system: S. cerevisiae W303-1A lactic acid-grown cells; settings: cited from earlier work
[2] = system: S. cerevisiae W303-1A jen1Δ ady2Δ cells; format: cell-based; settings: for Kd (diffusion component) for lactate, non-mediated transport: cells grown in YNB lactic acid
Procedure: FIG. 4. Initial uptake rates of the radiolabelled 14C -Lactic acid at different concentrations. S. cerevisaie W303-1A jen1 Δady2Δ cells containing the plasmid pNJ-LctP-CJ-GFP and pNJ-LIdp-CJ-GFP were grown in YNB Lactic acid medium at pH 5.5 and 30° C., until mid-exponential growth phase.
In an embodiment, to confirm the successful heterologous expression of transporters in this system several studies were carried out as described in (Soares-Silva, et al. 2015): radiolabelled lactate uptake assays, growth assays in solid minimal medium with carboxylates or sugars as sole carbon source and fluorescence microscopy to detect the location of GFP fusion proteins.
The growth of the S. cerevisiae ady2Δjen1Δ strain expressing the NJ-LldP-CJ-GFP protein and control strains were evaluated in YNB media (supplemented according to the required auxotrophies) containing lactic acid (0.5%) pH 5.5 at 18° C. The S. cerevisiae ady2Δjen1Δ strains expressing the native LIdP (pLIdP), the empty vector (p416GPD) and the ScJen1p (pDS1) were used as controls.
As a control the IctP gene was cloned in the p416GPD vector. For this construct the IctP gene was amplified from S. aureus genomic DNA using the primers LcFWD and LcREV (Table 1) and inserted and ligated in the p416GPD vector using the restriction enzymes BamHI and EcoRI. […] The growth of S. cerevisiae strains was tested in YNB media (supplemented according to the required auxotrophies) containing lactic acid 0.5% (pH 5.5).

[3] = system: hxt null mutant EBY.4000 strain; settings: HXT1 expressed in EBY.4000, Özcan and Johnston 1999, cited from earlier work

B1: ScJen1: S. cerevisiae lactate transporter Jen1, positive control (protein, UniProt P36035 2-616, looked up)
Carboxylic acid transporter …: SSSITDEKISGEQQQPAGRKLYYNTSTFAEPPLVDGEGNPINYEPEVYNPDHEKLYHNPSLPAQSIQDTRDDELLERVYSQDQGVEYEEDEEDKPNLSAASIKSYALTRFTSLLHIHEFSWENVNPIPELRKMTWQNWNYFFMGYFAWLSAAWAFFCVSVSVAPLAELYDRPTKDITWGLGLVLFVRSAGAVIFGLWTDKSSRKWPYITCLFLFVIAQLCTPWCDTYEKFLGVRWITGIAMGGIYGCASATAIEDAPVKARSFLSGLFFSAYAMGFIFAIIFYRAFGYFRDDGWKILFWFSIFLPILLIFWRLLWPETKYFTKVLKARKLILSDAVKANGGEPLPKANFKQKMVSMKRTVQKYWLLFAYLVVLLVGPNYLTHASQDLLPTMLRAQLGLSKDAVTVIVVVTNIGAICGGMIFGQFMEVTGRRLGLLIACTMGGCFTYPAFMLRSEKAILGAGFMLYFCVFGVWGILPIHLAELAPADARALVAGLSYQLGNLASAAASTIETQLADRYPLERDASGAVIKEDYAKVMAILTGSVFIFTFACVFVGHEKFHRDLSSPVMKKYINQVEEYEADGLSISDIVEQKTECASVKMIDSNVSKTYEEHIETV
modifications: GFP fusion
notes: S. cerevisiae lactate transporter Jen1, positive control
Km ([1]; Casal 1999, Paiva 2013, read-out: Km for lactate uptake): 290 µM
Vmax for lactate uptake ([1]; Casal 1999, Paiva 2013): 0.40 nmol of lactic acid s1 mg of dry weight1
Vmax for lactic acid uptake ([2]; 14C-lactic acid uptake, pH 5.0, cells grown in YNB lactic acid pH 5.5, 30° C., mid-exponential phase): 0.23±0.01 nmol s-1 mg-1 dry wt
Km ([2]; 14C-lactic acid uptake, pH 5.0, cells grown in YNB lactic acid pH 5.5, 30° C., mid-exponential phase, read-out: Km for lactic acid uptake): 270 ± 40 µM
Vmax for lactic acid uptake (unit not given) ([2]; positive control in FIG. 4 legend, 14C-lactic acid): 0.23
Km ([2]; positive control in FIG. 4 legend, 14C-lactic acid, read-out: Km value for lactic acid uptake (unit inferred)): 270 µM

B2: HXT1: S. cerevisiae low affinity glucose transporter, positive control (protein, UniProt P32465 1-570, looked up)
Low-affinity glucose …: MNSTPDLISPQKSNSSNSYELESGRSKAMNTPEGKNESFHDNLSESQVQPAVAPPNTGKGVYVTVSICCVMVAFGGFIFGWDTGTISGFVAQTDFLRRFGMKHHDGSHYLSKVRTGLIVSIFNIGCAIGGIVLAKLGDMYGRRIGLIVVVVIYTIGIIIQIASINKWYQYFIGRIISGLGVGGITVLSPMLISEVAPSEMRGTLVSCYQVMITLGIFLGYCTNFGTKNYSNSVQWRVPLGLCFAWALFMIGGMMFVPESPRYLVEAGRIDEARASLAKVNKCPPDHPYIQYELETIEASVEEMRAAGTASWGELFTGKPAMFQRTMMGIMIQSLQQLTGDNYFFYYGTIVFQAVGLSDSFETSIVFGVVNFFSTCCSLYTVDRFGRRNCLMWGAVGMVCCYVVYASVGVTRLWPNGQDQPSSKGAGNCMIVFACFYIFCFATTWAPIAYVVISECFPLRVKSKCMSIASAANWIWGFLISFFTPFITGAINFYYGYVFMGCMVFAYFYVFFFVPETKGLSLEEVNDMYAEGVLPWKSASWVPVSKRGADYNADDLMHDDQPFYKSLFSRK
Glucose concentration at which growth is restored [3]: above 1%
Km ([3]; read-out: Km of low-affinity glucose transport): 100000 µM

B3: pLIdP: Native E. coli LldP lactate permease cloned in p416GPD, control without eukaryotic termini (protein, UniProt P33231 1-551, looked up)
L-lactate permease: MNLWQQNYDPAGNIWLSSLIASLPILFFFFALIKLKLKGYVAASWTVAIALAVALLFYKMPVANALASVVYGFFYGLWPIAWIIIAAVFVYKISVKTGQFDIIRSSILSITPDQRLQMLIVGFCFGAFLEGAAGFGAPVAITAALLVGLGFKPLYAAGLCLIVNTAPVAFGAMGIPILVAGQVTGIDSFEIGQMVGRQLPFMTIIVLFWIMAIMDGWRGIKETWPAVVVAGGSFAIAQYLSSNFIGPELPDIISSLVSLLCLTLFLKRWQPVRVFRFGDLGASQVDMTLAHTGYTAGQVLRAWTPFLFLTATVTLWSIPPFKALFASGGALYEWVINIPVPYLDKLVARMPPVVSEATAYAAVFKFDWFSATGTAILFAALLSIVWLKMKPSDAISTFGSTLKELALPIYSIGMVLAFAFISNYSGLSSTLALALAHTGHAFTFFSPFLGWLGVFLTGSDTSSNALFAALQATAAQQIGVSDLLLVAANTTGGVTGKMISPQSIAIACAAVGLVGKESDLFRFTVKHSLIFTCIVGVITTLQAYVLTWMIP
Kd (diffusion component) for lactate, non-mediated transport ([2]; 14C-lactic acid uptake): 47 ± 2.5 µM
Kd (diffusion component) for lactate, non-mediated transport ([2]; 14C-lactic acid uptake, listed as Lldp): 43 ± 2 µM
Transport mechanism for labelled lactic acid ([2]; lactic acid uptake, pH 5.0): non-mediated transport mechanism
